Tests used:
Grb2 SH2 = Grb2 SH2 (UniProt P62993); assay: SH2 binding enrichment of the phosphorylated peptide, bacterial display (enrichment ratio); higher = better substrate or ligand; peptides without Tyr show the background
SHP2-C SH2 = assay: as above
c-Src SH2 = assay: as above
FGFR1 = FGFR1 (UniProt P11362); assay: phosphorylation enrichment, bacterial display (enrichment ratio); higher = better substrate or ligand; peptides without Tyr show the background
c-Abl (mouse) = assay: as above
c-Src = assay: as above
MERTK = MERTK (UniProt Q12866); assay: as above
Jak2 = Jak2 (UniProt O60674); assay: as above
Fyn = Fyn (UniProt P06241); assay: as above
Fes = Fes (UniProt P07332); assay: as above
AncSZ = assay: as above
EPHB2 = EPHB2 (UniProt P29323); assay: as above
Hck = Hck (UniProt P08631); assay: as above
FGFR3 = FGFR3 (UniProt P22607); assay: as above
Fer (mouse) = assay: as above
EPHB1 = EPHB1 (UniProt P54762); assay: as above
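Wherever SH2 binding enrichment of the phosphorylated peptide, bacterial display is given: peptide library displayed on the E. coli surface as eCPX fusions, selected cells deep-sequenced, score is each peptide's frequency after selection divided by its frequency in the input.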
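Wherever phosphorylation enrichment, bacterial display is given: 11-residue human phosphosite peptides and single-mutation variants displayed on the E. coli surface, counted by deep sequencing, each peptide's frequency after selection divided by its frequency in the unselected input library; frequency after pTyr selection over input frequency; kinase dosed for 20-30% of maximal phosphorylation in three min.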

Sequence of Fes (P07332 whole entry, looked up): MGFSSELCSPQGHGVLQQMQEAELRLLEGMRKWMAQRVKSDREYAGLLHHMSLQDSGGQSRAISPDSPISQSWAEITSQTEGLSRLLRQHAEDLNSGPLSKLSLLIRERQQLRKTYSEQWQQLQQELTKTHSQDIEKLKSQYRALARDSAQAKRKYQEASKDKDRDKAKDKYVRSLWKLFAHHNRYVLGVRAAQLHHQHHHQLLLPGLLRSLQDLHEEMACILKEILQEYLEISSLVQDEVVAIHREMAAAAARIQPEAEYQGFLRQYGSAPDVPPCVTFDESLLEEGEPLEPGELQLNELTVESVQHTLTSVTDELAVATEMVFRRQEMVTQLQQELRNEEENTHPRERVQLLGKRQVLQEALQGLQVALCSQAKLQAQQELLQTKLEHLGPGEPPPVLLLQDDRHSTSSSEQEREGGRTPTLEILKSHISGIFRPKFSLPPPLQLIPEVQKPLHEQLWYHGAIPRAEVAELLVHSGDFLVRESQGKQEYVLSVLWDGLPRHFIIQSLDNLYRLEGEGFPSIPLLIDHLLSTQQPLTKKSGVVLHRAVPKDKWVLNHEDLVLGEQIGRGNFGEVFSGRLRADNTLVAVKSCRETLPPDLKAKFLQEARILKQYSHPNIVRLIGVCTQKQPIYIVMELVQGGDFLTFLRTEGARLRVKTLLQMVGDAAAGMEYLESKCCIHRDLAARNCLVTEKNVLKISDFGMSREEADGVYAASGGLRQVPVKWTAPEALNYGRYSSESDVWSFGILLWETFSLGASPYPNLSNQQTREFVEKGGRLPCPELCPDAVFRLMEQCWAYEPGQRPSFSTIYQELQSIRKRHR
Sequence of FGFR1 (P11362 whole entry, looked up): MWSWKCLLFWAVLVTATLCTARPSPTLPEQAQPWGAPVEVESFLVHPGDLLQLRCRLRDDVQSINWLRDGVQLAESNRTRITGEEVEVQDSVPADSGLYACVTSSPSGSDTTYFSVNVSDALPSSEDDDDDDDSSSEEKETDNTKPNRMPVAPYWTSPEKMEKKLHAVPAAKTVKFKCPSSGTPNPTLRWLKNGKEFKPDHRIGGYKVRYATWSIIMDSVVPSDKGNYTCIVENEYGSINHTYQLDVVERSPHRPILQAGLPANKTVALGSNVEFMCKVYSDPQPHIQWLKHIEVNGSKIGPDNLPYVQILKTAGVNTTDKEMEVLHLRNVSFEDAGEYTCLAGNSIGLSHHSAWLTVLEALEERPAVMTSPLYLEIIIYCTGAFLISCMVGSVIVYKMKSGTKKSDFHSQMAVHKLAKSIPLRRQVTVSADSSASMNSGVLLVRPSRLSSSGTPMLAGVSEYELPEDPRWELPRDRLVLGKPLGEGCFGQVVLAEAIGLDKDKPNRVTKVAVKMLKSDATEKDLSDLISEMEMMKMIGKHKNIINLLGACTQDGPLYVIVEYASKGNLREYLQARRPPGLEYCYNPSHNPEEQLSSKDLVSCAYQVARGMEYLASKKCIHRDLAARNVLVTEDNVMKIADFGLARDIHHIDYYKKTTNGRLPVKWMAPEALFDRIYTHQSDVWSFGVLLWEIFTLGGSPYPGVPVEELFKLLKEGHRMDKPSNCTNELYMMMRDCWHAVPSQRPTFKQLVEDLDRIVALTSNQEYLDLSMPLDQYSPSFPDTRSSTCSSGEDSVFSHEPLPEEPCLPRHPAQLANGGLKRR
Sequence of MERTK (Q12866 whole entry, looked up): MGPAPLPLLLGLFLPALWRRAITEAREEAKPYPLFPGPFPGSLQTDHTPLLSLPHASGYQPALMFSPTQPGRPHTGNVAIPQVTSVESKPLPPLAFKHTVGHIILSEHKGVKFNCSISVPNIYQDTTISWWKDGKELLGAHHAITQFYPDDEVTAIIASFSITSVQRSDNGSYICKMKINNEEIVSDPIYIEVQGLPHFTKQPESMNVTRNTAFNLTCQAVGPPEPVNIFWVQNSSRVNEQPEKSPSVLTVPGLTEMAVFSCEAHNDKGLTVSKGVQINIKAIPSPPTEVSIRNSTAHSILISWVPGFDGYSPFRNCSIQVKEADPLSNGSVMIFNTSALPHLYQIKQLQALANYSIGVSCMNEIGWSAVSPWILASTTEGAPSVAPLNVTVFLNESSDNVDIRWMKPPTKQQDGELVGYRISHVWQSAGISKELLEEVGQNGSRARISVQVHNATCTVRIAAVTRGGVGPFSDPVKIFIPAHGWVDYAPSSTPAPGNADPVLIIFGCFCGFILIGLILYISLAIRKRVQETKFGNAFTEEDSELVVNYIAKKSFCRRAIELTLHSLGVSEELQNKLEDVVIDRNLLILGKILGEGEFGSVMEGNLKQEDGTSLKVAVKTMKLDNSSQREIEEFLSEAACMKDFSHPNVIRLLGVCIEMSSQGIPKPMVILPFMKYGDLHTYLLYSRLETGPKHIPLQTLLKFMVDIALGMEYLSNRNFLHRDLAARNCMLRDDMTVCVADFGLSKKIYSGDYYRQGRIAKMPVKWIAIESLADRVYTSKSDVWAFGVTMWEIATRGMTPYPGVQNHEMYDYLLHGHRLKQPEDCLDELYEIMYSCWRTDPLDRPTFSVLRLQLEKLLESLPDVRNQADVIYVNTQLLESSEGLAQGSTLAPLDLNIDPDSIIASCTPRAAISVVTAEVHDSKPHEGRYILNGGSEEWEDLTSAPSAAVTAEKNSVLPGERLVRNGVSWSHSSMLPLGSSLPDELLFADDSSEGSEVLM
Sequence of EPHB2 (P29323 whole entry, looked up): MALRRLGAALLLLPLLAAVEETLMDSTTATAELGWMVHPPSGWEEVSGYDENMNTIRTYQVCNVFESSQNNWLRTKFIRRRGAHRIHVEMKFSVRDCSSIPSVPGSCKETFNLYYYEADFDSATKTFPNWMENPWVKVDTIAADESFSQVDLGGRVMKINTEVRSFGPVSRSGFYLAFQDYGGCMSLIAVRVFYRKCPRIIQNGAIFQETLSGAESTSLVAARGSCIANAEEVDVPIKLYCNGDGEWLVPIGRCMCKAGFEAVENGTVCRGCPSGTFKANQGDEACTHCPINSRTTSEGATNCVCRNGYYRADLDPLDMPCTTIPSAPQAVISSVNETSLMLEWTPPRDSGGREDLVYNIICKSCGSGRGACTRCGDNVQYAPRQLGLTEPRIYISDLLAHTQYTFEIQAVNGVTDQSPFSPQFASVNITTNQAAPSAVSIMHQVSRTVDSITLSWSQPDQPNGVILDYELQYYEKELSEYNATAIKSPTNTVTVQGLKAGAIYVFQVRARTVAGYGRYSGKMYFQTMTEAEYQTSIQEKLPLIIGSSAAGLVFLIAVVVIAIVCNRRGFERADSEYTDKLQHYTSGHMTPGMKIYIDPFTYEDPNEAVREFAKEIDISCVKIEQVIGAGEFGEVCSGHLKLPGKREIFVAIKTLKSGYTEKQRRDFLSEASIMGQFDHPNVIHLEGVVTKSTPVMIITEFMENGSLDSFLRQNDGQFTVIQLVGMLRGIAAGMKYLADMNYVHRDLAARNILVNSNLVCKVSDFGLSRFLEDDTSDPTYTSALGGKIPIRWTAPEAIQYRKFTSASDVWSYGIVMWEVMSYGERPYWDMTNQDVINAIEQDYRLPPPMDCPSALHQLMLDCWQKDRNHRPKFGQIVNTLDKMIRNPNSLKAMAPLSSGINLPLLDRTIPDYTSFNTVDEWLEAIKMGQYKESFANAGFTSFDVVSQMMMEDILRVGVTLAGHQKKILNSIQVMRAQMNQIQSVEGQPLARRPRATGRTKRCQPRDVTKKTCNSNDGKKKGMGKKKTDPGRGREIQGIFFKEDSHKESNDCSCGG
Sequence of Jak2 (O60674 whole entry, looked up): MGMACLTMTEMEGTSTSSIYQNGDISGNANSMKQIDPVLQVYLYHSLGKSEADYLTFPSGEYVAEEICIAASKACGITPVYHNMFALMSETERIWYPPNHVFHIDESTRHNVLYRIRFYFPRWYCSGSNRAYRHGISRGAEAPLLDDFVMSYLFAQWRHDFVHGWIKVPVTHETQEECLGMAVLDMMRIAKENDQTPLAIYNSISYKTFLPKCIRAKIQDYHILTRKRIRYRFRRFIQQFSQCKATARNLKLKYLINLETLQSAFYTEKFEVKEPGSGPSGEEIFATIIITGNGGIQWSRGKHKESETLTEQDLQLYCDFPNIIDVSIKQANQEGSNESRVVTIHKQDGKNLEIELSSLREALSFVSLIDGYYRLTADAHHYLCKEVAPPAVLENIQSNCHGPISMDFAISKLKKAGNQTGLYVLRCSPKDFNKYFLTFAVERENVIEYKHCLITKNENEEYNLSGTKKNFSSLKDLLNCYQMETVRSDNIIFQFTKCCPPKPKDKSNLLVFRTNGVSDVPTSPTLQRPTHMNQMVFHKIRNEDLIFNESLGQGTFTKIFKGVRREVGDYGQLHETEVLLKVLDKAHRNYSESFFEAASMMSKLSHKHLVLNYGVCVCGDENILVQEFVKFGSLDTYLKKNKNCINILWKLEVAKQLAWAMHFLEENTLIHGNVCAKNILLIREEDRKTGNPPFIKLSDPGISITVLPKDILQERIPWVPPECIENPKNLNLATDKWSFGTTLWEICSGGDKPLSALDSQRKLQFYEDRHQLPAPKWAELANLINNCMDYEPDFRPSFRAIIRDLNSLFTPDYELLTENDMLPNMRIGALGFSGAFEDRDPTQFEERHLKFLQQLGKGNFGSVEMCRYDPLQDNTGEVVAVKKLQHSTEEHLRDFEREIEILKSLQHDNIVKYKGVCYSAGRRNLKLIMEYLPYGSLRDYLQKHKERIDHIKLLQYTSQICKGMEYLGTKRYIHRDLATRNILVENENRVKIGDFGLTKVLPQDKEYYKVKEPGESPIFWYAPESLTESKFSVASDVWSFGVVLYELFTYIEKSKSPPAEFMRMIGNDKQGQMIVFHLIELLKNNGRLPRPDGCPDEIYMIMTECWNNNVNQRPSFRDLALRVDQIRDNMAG

Row | Sequence | SH2 binding enrichment (Grb2 SH2) | SH2 binding enrichment (SHP2-C SH2) | SH2 binding enrichment (c-Src SH2) | phosphorylation enrichment (FGFR1) | phosphorylation enrichment (c-Abl (mouse)) | phosphorylation enrichment (c-Src) | phosphorylation enrichment (MERTK) | phosphorylation enrichment (Jak2) | phosphorylation enrichment (Fyn) | phosphorylation enrichment (Fes) | phosphorylation enrichment (AncSZ) | phosphorylation enrichment (EPHB2) | phosphorylation enrichment (Hck) | phosphorylation enrichment (FGFR3) | phosphorylation enrichment (Fer (mouse)) | phosphorylation enrichment (EPHB1)
1 | KHCEDYVFSFN [DSC1_Y846_C848F_YF] | 0.941 | 0.817 | 0.55 | 1.82 | 0.791 | 1.75 | 0.471 | 1.04 | 0.472 | 1.21 | 1.75 | 0.739 | 0.499 | 1.84 | 0.562 | 0.776
2 | CLAKMYYSAVE [CP_Y539_D544E] | 0.828 | 0.971 | 2.57 | 0.861 | 0.651 | 0.725 | 2.82 | 0.831 | 0.563 | 1.19 | 1.04 | 0.901 | 0.606 | 0.885 | 1.35 | 0.863
3 | LPKEQYLCTKE [AFG3L2_Y614_Y616C] | 0.883 | 0.533 | 0.584 | 0.482 | 0.723 | 0.427 | 0.409 | 0.868 | 0.466 | 1.01 | 0.858 | 0.428 | 0.409 | 0.653 | 0.562 | 0.463
4 | IHHIDYFKKTT [FGFR1_Y653_YF] | 0.585 | 0.526 | 0.526 | 0.481 | 0.501 | 0.545 | 0.444 | 0.613 | 0.561 | 0.822 | 0.718 | 0.385 | 0.52 | 0.642 | 0.398 | 0.36
5 | SIKNKYVTALF [KCNH2_Y611_D609N_YF] | 0.994 | 1.06 | 0.671 | 0.417 | 0.487 | 0.41 | 0.41 | 0.566 | 0.402 | 0.653 | 0.672 | 0.459 | 0.465 | 0.507 | 0.371 | 0.394
6 | MICSAYALGGL [CPS1_Y590_R587C] | 0.764 | 0.506 | 0.552 | 0.635 | 0.811 | 0.779 | 0.571 | 0.983 | 0.659 | 1.05 | 0.961 | 0.601 | 0.72 | 0.844 | 0.551 | 0.623
7 | MTRDIYRASFF [ALK_Y1278_A1274T_YF] | 0.811 | 0.563 | 0.529 | 0.572 | 4.15 | 0.592 | 0.464 | 0.621 | 0.587 | 0.73 | 0.657 | 0.462 | 0.89 | 0.677 | 0.386 | 0.519
8 | MMVGAYSSLEG [ECPAS_Y470_T472S] | 0.82 | 0.77 | 7.6 | 0.514 | 0.785 | 0.671 | 1.97 | 0.563 | 0.533 | 0.754 | 0.631 | 0.434 | 0.832 | 0.515 | 0.528 | 0.469
9 | WQQQSYLDSGI [CTNNB1_Y30] | 0.726 | 0.649 | 0.571 | 0.479 | 0.568 | 0.38 | 0.418 | 0.758 | 0.388 | 0.847 | 0.75 | 0.433 | 0.407 | 0.597 | 0.428 | 0.489
10 | NKHTNYTMEHI [ACTN1_Y708] | 0.814 | 0.603 | 0.458 | 0.404 | 0.352 | 0.381 | 0.358 | 0.421 | 0.388 | 0.549 | 0.509 | 0.401 | 0.384 | 0.296 | 0.36 | 0.35
11 | WASQRYGRELR [BAD_Y110_A107S] | 0.861 | 0.504 | 0.324 | 0.39 | 0.728 | 0.501 | 0.516 | 0.644 | 0.624 | 0.84 | 0.621 | 0.538 | 0.4 | 0.414 | 0.332 | 0.484
12 | VSTAVYKRFPS [BEST1_Y148] | 0.748 | 0.647 | 0.414 | 0.498 | 0.668 | 0.395 | 0.526 | 0.593 | 0.379 | 0.733 | 0.512 | 0.382 | 0.426 | 0.463 | 0.395 | 0.348
13 | GDFLSYREFHS [ERBIN_Y1107_YF] | 0.741 | 0.639 | 0.49 | 0.432 | 0.534 | 0.423 | 0.359 | 0.557 | 0.348 | 0.686 | 0.625 | 0.469 | 0.385 | 0.567 | 0.489 | 0.386
14 | KDKLPYLFDDP [GPX2_Y125_P126L_YF] | 0.731 | 0.773 | 0.347 | 0.472 | 0.557 | 0.557 | 0.426 | 1.01 | 0.479 | 0.969 | 1.23 | 0.515 | 0.468 | 0.544 | 0.423 | 0.632
15 | QMVGMYAFSYM [AVPR2_Y124_S126F] | 0.638 | 0.651 | 0.562 | 0.804 | 1.27 | 1.35 | 6.65 | 1.44 | 1.55 | 1.86 | 2.25 | 1.84 | 1.52 | 1.15 | 4.47 | 2.45

Continued, in another order:

Row | SH2 binding enrichment (Grb2 SH2) | SH2 binding enrichment (SHP2-C SH2) | SH2 binding enrichment (c-Src SH2) | Sequence | phosphorylation enrichment (FGFR1) | phosphorylation enrichment (c-Abl (mouse)) | phosphorylation enrichment (c-Src) | phosphorylation enrichment (MERTK) | phosphorylation enrichment (Jak2) | phosphorylation enrichment (Fyn) | phosphorylation enrichment (Fes) | phosphorylation enrichment (AncSZ) | phosphorylation enrichment (EPHB2) | phosphorylation enrichment (Hck) | phosphorylation enrichment (FGFR3) | phosphorylation enrichment (Fer (mouse)) | phosphorylation enrichment (EPHB1)
16 | 0.683 | 0.601 | 0.477 | CFTRKYTLPPG [HSPB1_Y142] | 0.495 | 0.678 | 0.452 | 0.42 | 0.787 | 0.443 | 1.06 | 0.763 | 0.459 | 0.457 | 0.604 | 0.459 | 0.546
17 | 0.762 | 0.73 | 0.419 | ISSLDYISKTK [VAV3_Y294] | 0.505 | 0.478 | 0.487 | 0.537 | 0.495 | 0.559 | 0.696 | 0.703 | 0.463 | 0.447 | 0.513 | 0.386 | 0.626
18 | 0.812 | 0.677 | 0.6 | EPTPGYEVGQR [TSC2_Y1788] | 0.514 | 0.602 | 0.507 | 0.491 | 0.672 | 0.51 | 0.907 | 0.863 | 0.585 | 0.566 | 0.591 | 0.545 | 0.472
19 | 0.706 | 0.607 | 0.418 | PVGVLYKVKVF [PTS_Y128_YF] | 0.842 | 0.882 | 0.388 | 0.381 | 1.21 | 0.716 | 1.61 | 1.45 | 0.906 | 0.619 | 1.4 | 0.659 | 1.14
20 | 1.23 | 0.769 | 0.656 | KLKEKYEKDIA [HMGB1_Y155] | 0.536 | 0.647 | 0.507 | 0.663 | 0.784 | 0.537 | 0.82 | 0.704 | 0.495 | 0.473 | 0.452 | 0.55 | 0.418
21 | 1.96 | 1.83 | 1.67 | CTTIHYNFTCN [TP53_Y234_M237T_YF] | 0.496 | 0.634 | 0.441 | 0.42 | 0.704 | 0.443 | 0.866 | 0.797 | 0.6 | 0.414 | 0.593 | 0.426 | 0.448
22 | 1.13 | 1.59 | 1.14 | FGLDHYQCDCT [PTGS1_Y54_R53H] | 0.453 | 0.61 | 0.464 | 0.489 | 0.812 | 0.379 | 0.986 | 0.956 | 0.5 | 0.424 | 0.68 | 0.464 | 0.401
23 | 0.851 | 0.555 | 0.669 | VMLENYSNLVS [ZFP69_Y109] | 0.654 | 0.39 | 0.363 | 0.375 | 0.49 | 0.563 | 0.781 | 0.819 | 1.24 | 0.49 | 0.608 | 0.556 | 1.49
24 | 1.03 | 0.895 | 0.744 | DEEPPHRGPFC [SASH1_Y551_Y551H] | 0.645 | 0.609 | 0.475 | 0.41 | 0.795 | 0.489 | 1.06 | 1.01 | 0.783 | 0.542 | 0.651 | 0.528 | 0.619
25 | 0.956 | 0.605 | 1.02 | HLVSEYQQYQD [TUBB3_Y422_D417H] | 0.868 | 0.98 | 0.939 | 0.482 | 1.29 | 0.652 | 1.61 | 1.78 | 1.11 | 1.21 | 1.05 | 0.72 | 1.07
26 | 1.54 | 1.56 | 1.44 | LITTLYSGFLG [KCNQ1_Y267_I268S] | 0.339 | 1.22 | 6.52 | 3.39 | 0.992 | 5.49 | 1.08 | 1.38 | 0.611 | 3.96 | 0.755 | 0.824 | 0.965
27 | 0.872 | 0.7 | 0.648 | VCDSNYSASRW [LRP5_Y1552_D1551N] | 0.509 | 0.507 | 0.396 | 0.426 | 0.618 | 0.483 | 0.864 | 0.719 | 1.85 | 0.508 | 0.626 | 0.513 | 1.62
28 | 0.696 | 0.599 | 0.56 | PVDVAYRRGFF [PLEC_Y2967_YF] | 0.504 | 0.574 | 0.475 | 0.586 | 0.728 | 0.424 | 0.833 | 0.909 | 0.44 | 0.595 | 0.535 | 0.584 | 0.456
29 | 0.761 | 0.462 | 0.436 | NKEAICSGYIR [SMCHD1_Y283_Y283C] | 0.509 | 1.3 | 0.399 | 0.42 | 0.875 | 0.369 | 0.903 | 0.794 | 0.547 | 0.424 | 0.71 | 0.446 | 0.52
30 | 0.706 | 0.36 | 0.479 | MKGDFYRFLAE [YWHAG_Y131_YF] | 0.448 | 0.596 | 0.448 | 0.734 | 0.845 | 0.429 | 0.798 | 0.803 | 0.494 | 0.349 | 0.49 | 0.426 | 0.497
31 | 0.871 | 0.642 | 0.458 | QFNPEYVQQAS [LRRC7_Y1058_H1054Y_YF] | 0.741 | 0.904 | 0.518 | 0.638 | 1.3 | 0.687 | 1.46 | 1.79 | 0.778 | 0.792 | 0.761 | 0.648 | 1.02
32 | 1.06 | 0.792 | 0.5 | PTTKTYFPHFG [HBA1_Y43_D48G] | 0.501 | 0.491 | 0.747 | 0.397 | 0.958 | 0.458 | 0.645 | 0.658 | 0.322 | 0.372 | 0.556 | 0.435 | 0.543
33 | 1.97 | 1.41 | 1.98 | HAVFVCDICHV [TWNK_Y508_Y508C_YF] | 0.506 | 0.641 | 0.807 | 0.689 | 0.948 | 0.455 | 0.836 | 0.933 | 0.631 | 0.603 | 0.775 | 0.696 | 0.627

— the supplement of paper PMC10065799, “High-throughput profiling of sequence recognition by tyrosine kinases and SH2 domains using bacterial peptide display” (eLife, 2023)
